Data on eight molecules can be found in patent US20240067748A1 (NONA BIOSCIENCES SUZHOU, published 2024).

For orientation: EC50 means the concentration giving half of the maximal effect. Broadly, the Kd is the concentration at which binding is half-saturated. As usually defined, the koff is the first-order rate constant of dissociation. A word on the kon: it is a measure of how fast the partners come together.

Experiment [1] deals with T1, monkey Trop2 protein (Sino Biological, #90893-C08H) (monkey, UniProt A0A2K5UE71 27-274).
T1 construct: bought protein; also called monkey Trop2 protein antigen (His tag)
T1 sequence: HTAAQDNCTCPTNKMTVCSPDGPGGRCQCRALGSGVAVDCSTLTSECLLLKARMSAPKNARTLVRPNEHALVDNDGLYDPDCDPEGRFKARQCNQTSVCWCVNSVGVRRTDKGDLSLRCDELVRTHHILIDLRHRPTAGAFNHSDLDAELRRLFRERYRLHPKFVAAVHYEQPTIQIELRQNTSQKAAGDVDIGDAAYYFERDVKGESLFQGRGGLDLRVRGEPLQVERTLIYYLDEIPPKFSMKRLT
Description: BLI, Octet RED96; ratio against KD for human Trop2 protein. Here is the method: (§1) Specifically, a human TROP2 protein (Sino Biological, #10428-H08H) or a monkey Trop2 protein (Sino Biological, #90893-C08H) was diluted to 200 nM with a PBS buffer (pH 7.4) containing 0.1% (w/w) BSA and 0.02% (v/v) tween 20, and incubated with the AHC sensor respectively. 40 nM Trop2 antibody was incubated at 30° C. for 3 min with the AHC sensor loaded with the human Trop2 protein or monkey Trop2 protein respectively. The reaction mixture was incubated at 30° C. for another 5 min in a PBS buffer (pH 7.4) containing 0.1% (v/w) BSA and 0.02% (v/v) Tween 20. The association and dissociation signals between the Trop2 antibody and the human Trop2 protein or monkey Trop2 protein were recorded by Octet Red 96 in real time. The affinity and the association and dissociation constants were determined by Octet using software.

A further experiment has as its target T2, human Trop2 on cells (human, UniProt P09758 27-323).
T2 construct: whole, on cells; also called hTrop2; 293T-human Trop2 cells
T2 sequence (looked up): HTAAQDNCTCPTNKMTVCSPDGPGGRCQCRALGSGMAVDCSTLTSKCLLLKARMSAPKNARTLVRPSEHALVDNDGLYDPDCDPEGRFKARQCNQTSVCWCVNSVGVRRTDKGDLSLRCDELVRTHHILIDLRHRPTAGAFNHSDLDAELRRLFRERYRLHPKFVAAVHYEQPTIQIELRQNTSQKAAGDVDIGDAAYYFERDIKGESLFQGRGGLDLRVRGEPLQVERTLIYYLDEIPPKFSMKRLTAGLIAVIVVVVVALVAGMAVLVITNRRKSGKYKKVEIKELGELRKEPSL
Description: flow cytometry on 293T-human Trop2 cells. Here is the method:
The cell density was determined, and the cells were resuspended to 1×10⁶ cells/mL in PBS. 100 μL of cell suspension was taken from each well and added to a 96 well V-bottom plate. The 96-well V-bottom plate was centrifuged at 1000 rpm for 5 min and washed once with PBS+0.5% BSA (VWR, #0332-100G). […] After 1 h, the cells were washed twice with PBS+0.5% BSA. The cells were incubated with 100 μL of Alexa Fluor 488 goat anti-human IgG (Life technologies, 1:1000, #A-11013) at 4° C. for 1 h in the dark, and washed twice with PBS+0.5% BSA. The cells were resuspended in 200 μL of PBS+0.5% BSA. The fluorescence intensity of the cells was analyzed using a FACS verse flow cytometer. All procedures were performed on ice.
On the technique in general: In flow cytometry, cells or beads pass a laser one at a time.

In experiment [2] the target is T1, monkey Trop2 protein (Sino Biological, …). Description: BLI, Octet RED96, AHC sensor. Here is the method: as §1
(In general: BLI is a label-free optical method that tracks binding on a fibre tip over time.)

Experiment [3] has as its target T3, human TROP2 protein (Sino Biological, #10428-H08H) (human, UniProt P09758 27-274).
T3 construct: bought protein; also called human Trop2 protein antigen (His tag); not shown: His tag
T3 sequence (looked up): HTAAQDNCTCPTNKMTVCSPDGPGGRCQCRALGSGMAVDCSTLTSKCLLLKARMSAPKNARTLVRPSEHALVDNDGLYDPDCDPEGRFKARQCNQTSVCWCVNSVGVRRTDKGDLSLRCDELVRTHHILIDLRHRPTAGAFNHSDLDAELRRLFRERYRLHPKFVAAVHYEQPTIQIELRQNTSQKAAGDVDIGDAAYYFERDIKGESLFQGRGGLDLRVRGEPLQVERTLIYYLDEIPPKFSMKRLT
Description: BLI, Octet RED96, AHC sensor. Here is the method:
as §1

B1: PR001171 (antibody, human IgG1, kappa, V domains shown)
VH: QVQLVESGGGVVQPGRSLRLSCAASGFTFSHYGMHWVRQAPGKGLEWVAVIWYDGIKKNYVESVKGRFTISRDNSKNTLNLQMNRLRAEDTAVYYCARDGGFGESNYYGLDVWGQGTTVTVSS
VL: DIQLTQSPSFLSASVGDRVTITCRASQGISSYLGWYQQKPGKAPKLLIYIASTLQSGVPSRFSGSGSGTEFTLTISSLQPEDFATYYCQQLNSYPYTFGQGTKLEIKR
notes: fully human IgG1/kappa; also called antibody No. (30)
On to B1, for which the “KD (monkey)/KD (human)” value in experiment [1] is 6.02. Further, in the experiment with human Trop2 on cells, the EC50 was found to be 0.997 nM, the “Maximum (MFI)” value is 6600 MFI and the Top % was 102%. For the same molecule, in experiment [2], the Kd came out at 0.151 nM, the Response came out at 0.319, the koff was 1.34e-05 s⁻¹ and the kon turned out to be 88300 M⁻¹ s⁻¹. In experiment [3], this molecule showed a Kd of 0.0251 nM, a Response of 0.326, a koff of 3.74e-06 s⁻¹ and a kon of 149000 M⁻¹ s⁻¹.

B2: PR001155 (antibody, human IgG1, kappa, V domains shown)
VH: QVQLVQSGGGVVQPGRSLRLSCAASGFTFSHYGMHWVRQAPGKGLEWVAVIWYDGIKKYYVESVKGRFTISRDNSKNTLYLQMNRLRAEDTAVYYCARDGGFGELNYYGLDVWGQGTTVTVSS
VL: DIQLTQSPSFLSASVGDRVTITCRASQGISSYLGWYQQKPGKAPKLLIYVASTLQSGVPSRFSGSGSGTEFTLTISSLQPEDFATYYCQQLNSYPYTFGQGTKLEIKR
notes: fully human IgG1/kappa; also called antibody No. (18)
As to B2, in experiment [1], the “KD (monkey)/KD (human)” value worked out at 2.32. For the same molecule, in the experiment with human Trop2 on cells, a half-maximal effect (EC50) was put at 2.54 nM, the “Maximum (MFI)” value was found to be 7320 MFI and the Top % was found to be 113%. In experiment [2], this molecule registered a Kd of 4.26 nM, a Response of 0.356, a koff of 0.000219 s⁻¹ and a kon of 51500 M⁻¹ s⁻¹. In experiment [3], this molecule registered a Kd of 1.84 nM, a Response of 0.406, a koff of 0.000144 s⁻¹ and a kon of 78100 M⁻¹ s⁻¹.

B3: PR001151 (antibody, human IgG1, kappa, V domains shown)
VH: QVQLVESGGGVVQPGRSLRLSCAASGFTFSHYGMHWVRQAPGKGLEWVAVIWYDGIKKDYVESVKGRFTISRDNSKNTLYLQMNRLRAEDTAVYYCARDGGFGELNYYGLDVWGQGTTVTVSS
VL: DIQLTQSPSFLSASVGDRVTITCRASQGISSYLGWYQQKPGKAPKLLIYVASTLQSGVPSRFSGSGSGTEFTLTISSLQPEDFATYYCQQLNSYPYTFGQGTKLEIKR
notes: fully human IgG1/kappa; also called antibody No. (14)
With B3, the “KD (monkey)/KD (human)” value in experiment [1] turned out to be 2.12. Further, in the experiment with human Trop2 on cells, the EC50 came to 1.61 nM, the “Maximum (MFI)” value is 7510 MFI and the Top % amounted to 116%. In experiment [2], this molecule yielded a Kd of 2.38 nM, a Response of 0.351, a koff of 0.00018 s⁻¹ and a kon of 75800 M⁻¹ s⁻¹. In experiment [3], this molecule had a Kd of 1.12 nM, a Response of 0.407, a koff of 0.000127 s⁻¹ and a kon of 113000 M⁻¹ s⁻¹.

B4: PR001152 (antibody, human IgG1, kappa, V domains shown)
VH: QVQLVESGGAVVQPGRSLRLSCAASGFTFSHYGMHWVRQAPGKGLEWVAVIWYDGIKSYYVESVKGRFTISRDNSKNTLYLQMDRLRAEDTAVYYCARDGGFGESNYYGLDVWGQGTTVTVSS
VL: DIQLTQSPSFLSASVGDRVTITCRASQGINSYLGWYQRKPGKAPKLLIYIASTLQSGVPSRFSGSGSGTEFTLTISSLQPEDFATYYCQQLNSYPYTFGQGTKLEIKR
notes: fully human IgG1/kappa; also called antibody No. (15)
Regarding B4, the “KD (monkey)/KD (human)” value in experiment [1] is 7.57. Moreover, in the experiment with human Trop2 on cells, the EC50 is 1.93 nM, the “Maximum (MFI)” value stood at 7180 MFI and the Top % came to 111%. Also, in experiment [2], the Kd was determined as 1.02 nM, the Response was 0.343, the koff is 0.000105 s⁻¹ and the kon is 103000 M⁻¹ s⁻¹. Also, in experiment [3], the Kd is 0.135 nM, the Response amounted to 0.348, the koff is 2.08e-05 s⁻¹ and the kon was 154000 M⁻¹ s⁻¹.

B5: PR001150 (antibody, human IgG1, kappa, V domains shown)
VH: QVQLVESGGGVVQPEKSLRLSCAASGFTFSHYGMHWVRQVPGKGLEWVAVIWYDGIKRYYVESVKGRFTISRDNSKNTLYLQMNRLRAEDTAVYYCARDGGFGESNYYGLDVWGQGTTVTVSS
VL: DIQLTQSPSFLSASVGDRVTITCRASQGINSYLGWYQRKPGKAPKLLIYIASTLQSGVPSRFSGSGSGTEFTLTISSLQPEDFATYYCQQLNSYPYTFGQGTKLEIKR
notes: fully human IgG1/kappa; also called antibody No. (13)
B5: the “KD (monkey)/KD (human)” value in experiment [1] was found to be 9.76. Besides, in the experiment with human Trop2 on cells, the EC50 was 0.589 nM, the “Maximum (MFI)” value stood at 6570 MFI and the Top % was 101%. In experiment [2], this molecule returned a Kd of 0.319 nM, a Response of 0.344, a koff of 3.41e-05 s⁻¹ and a kon of 107000 M⁻¹ s⁻¹. Further, in experiment [3], the Kd worked out at 0.0326 nM, the Response came to 0.382, the “fold lower KD than the reference antibody Tab (hRS7)” value is about 10 fold and the koff was 5.25e-06 s⁻¹. The on-rate (kon) in experiment [3] was 161000 M⁻¹ s⁻¹.

B6: PR001156 (antibody, human IgG1, kappa, V domains shown)
VH: QVQLVESGGGVVQPGRSLRLSCEGSGFTFSHYGMHWVRQAPGKGLEWVAVIWYDGIKKNYVDSLKGRFTISRDNSKNTLYLQMNSLRAEDTAVYYCARDGGFGELNYYGMDVWGQGTTVTVSS
VL: DIQLTQSPSFLSASVGDRVTITCRASQGISSYLGWYQQKPGKAPKLLIYIASTLQSGVPSRFSGSGSGTEFTLTISSLQPEDFATYYCQQLNSYPYTFGQGTKLEIKR
notes: fully human IgG1/kappa; also called antibody No. (19)
Regarding B6, the “KD (monkey)/KD (human)” value in experiment [1] was 5.85. In addition, in the experiment with human Trop2 on cells, the EC50 is 1.67 nM, the “Maximum (MFI)” value worked out at 7270 MFI and the Top % came to 112%. Also, in experiment [2], the Kd worked out at 0.536 nM, the Response amounted to 0.349, the koff amounted to 6.15e-05 s⁻¹ and the kon is 115000 M⁻¹ s⁻¹. In addition, in experiment [3], the Kd amounted to 0.0916 nM, the Response was 0.354, the koff is 1.67e-05 s⁻¹ and the kon was found to be 183000 M⁻¹ s⁻¹.

B7: PR001158 (antibody, human IgG1, kappa, V domains shown)
VH: QVQLVESGGGVVQPGRSLRLSCVASGFTFSHYGMHWVRQAPGKGLEWVAVIWYDGIKKYYVESVKGRFTISRDNSKNTLNLQMNRLRAEDTAVYYCARDGGFGESNYYGLDVWGQGTTVTVSS
VL: DIQLTQSPSFLSASVGDRVTITCRASQGISSYLGWYQQKPGKAPKLLIYIASTLQSGVPSRFSGSGSGTEFTLTISSLQPEDFATYYCQQLNSYPYTFGQGTKLEIKR
notes: fully human IgG1/kappa; also called antibody No. (20)
Turning to B7, in experiment [1], the “KD (monkey)/KD (human)” value is 4.56. Also, in the experiment with human Trop2 on cells, the response was half-maximal at 1.26 nM (EC50), the “Maximum (MFI)” value came out at 6950 MFI and the Top % is 107%. Moreover, in experiment [2], the Kd came out at 0.708 nM, the Response was 0.406, the koff was 6.23e-05 s⁻¹ and the kon amounted to 87900 M⁻¹ s⁻¹. In experiment [3], this molecule displayed a Kd of 0.155 nM, a Response of 0.433, an off-rate constant (koff) of 2.05e-05 s⁻¹ and a kon of 132000 M⁻¹ s⁻¹.

B8: PR001154 (antibody, human IgG1, kappa, V domains shown)
VH: QVQLVESGGGVVQPGRSLRLSCEASGFTFSHYGMHWVRQAPGKGLEWVAVIWYDGIKKYYIESVKGRFIISRDNSKNTLYLQMNRLRAEDTAVYYCARDGGFGELNYYGLDVWGQGTTVTVSS
VL: DIQLTQSPSFLSASVGDRVTITCRASQGISSYLGWYQQKPGKAPKLLIYVASTLQSGVPSRFSGSGSGTEFTLTISSLQPEDFATYYCQQLNSYPYTFGQGTKLEIKR
notes: fully human IgG1/kappa; also called antibody No. (17)
Turning to B8, in experiment [1], the “KD (monkey)/KD (human)” value came out at 2.24. Further, in the experiment with human Trop2 on cells, the midpoint of the response, the EC50, lay at 2.11 nM; the “Maximum (MFI)” value came out at 7470 MFI; the Top % was 115%. Moreover, in experiment [2], the Kd was 1.91 nM, the Response was found to be 0.379, the koff amounted to 0.000139 s⁻¹ and the kon turned out to be 72700 M⁻¹ s⁻¹. In experiment [3], this molecule showed a Kd of 0.855 nM, a Response of 0.41, a koff of 9.23e-05 s⁻¹ and a kon of 108000 M⁻¹ s⁻¹.
